From article PMC9417184
Values belong to the substance of their own block, whether it stands above or below them.

Assays:
[1] = biological target: Gallionella sp. form II RuBisCO R98A (Gallionella sp.); assay: SEC-MALS + other: SAXS; SEC-SAXS-MALS; RuBisCO at 2 to 5 mg/ml, activated with excess NaHCO3; Shodex KW-803 column; 20 mM Hepes-OH pH 8.0, 300 mM NaCl, 10 mM MgCl2, 10 mM NaHCO3; oligomeric state of the enzyme
[2] = biological target: Gallionella sp. form II RuBisCO R131A (Gallionella sp.); assay: as above
[3] = biological target: Gallionella sp. form II RuBisCO, wild type (GWS1B) (Gallionella sp.); assay: as above
[4] = biological target: Insolitispirillum peregrinum form II RuBisCO, wild type (Insolitispirillum peregrinum); assay: as above
[5] = biological target: Rhodospirillaceae bacterium BRH_c57 form II RuBisCO (Rhodospirillaceae bacterium BRH_c57); assay: as above
[6] = biological target: Rhodospirillaceae bacterium BRH_c57 form II RuBisCO (Rhodospirillaceae bacterium BRH_c57); assay: crystal structure; X-ray; RuBisCO activated and incubated with a tenfold molar excess of CABP; molecular replacement
[7] = biological target: Sulfurivirga caldicuralii form II RuBisCO (Sulfurivirga caldicuralii); assay: SEC-MALS + other: SAXS; SEC-SAXS-MALS; RuBisCO at 2 to 5 mg/ml, activated with excess NaHCO3; Shodex KW-803 column; 20 mM Hepes-OH pH 8.0, 300 mM NaCl, 10 mM MgCl2, 10 mM NaHCO3; oligomeric state of the enzyme
[8] = biological target: Sulfurivirga caldicuralii form II RuBisCO (Sulfurivirga caldicuralii); assay: crystal structure; X-ray; RuBisCO activated and incubated with a tenfold molar excess of CABP; molecular replacement

Substance: Gallionella sp. form II RuBisCO R131A (enzyme)
stoichiometry N [2]: 2

Substance: Gallionella sp. form II RuBisCO, wild type (GWS1B) (enzyme)
stoichiometry N [3]: 6

Substance: Insolitispirillum peregrinum form II RuBisCO, wild type (enzyme)
stoichiometry N [4]: 2

More lines, now with the values ahead:

stoichiometry N [1]: 2
Substance: Gallionella sp. form II RuBisCO R98A (enzyme)

stoichiometry N [5]: 6
stoichiometry N [6]: 6
Substance: Rhodospirillaceae bacterium BRH_c57 form II RuBisCO (enzyme)

stoichiometry N [7]: 4
stoichiometry N [8]: 4
Substance: Sulfurivirga caldicuralii form II RuBisCO (enzyme)
